# B1: active DIESL: DIESL polypeptide (human transmembrane protein 68, SEQ ID NO: 1) with triacylglycerol synthase activity (protein, listed as Homo sapiens)
# chain: MIDKNQTCGVGQDSVPYMICLIHILEEWFGVEQLEDYLNFANYLLWVFTPLILLILPYFTIFLLYLTIIFLHIYKRKNVLKEAYSHNLWDGARKTVATLWDGHAAVWHGYEVHGMEKIPEDGPALIIFYHGAIPIDFYYFMAKIFIHKGRTCRVVADHFVFKIPGFSLLLDVFCALHGPREKCVEILRSGHLLAISPGGVREALISDETYNIVWGHRRGFAQVAIDAKVPIIPMFTQNIREGFRSLGGTRLFRWLYEKFRYPFAPMYGGFPVKLRTYLGDPIPYDPQITAEELAEKTKNAVQALIDKHQRIPGNIMSALLERFH
# Legend:
# E. coli = experiment: Recombinant expression of DIESL in E. coli, TAG by TLC and mass spectrometry; format: cell-based; details: human DIESL preceded by a bacterial membrane targeting sequence, FIG. 4F
# Experimental: E. coli BL21 were transformed with pET24 or pET28a plasmids expressing the indicated construct. Single clones were cultured up to a 5 ml volume in LB broth at OD 0.5 at 37° C. Cultures were then transferred to 25° C. for one hour, and then expression was induced with 0.2 mM IPTG for 16h. For SDS-PAGE and immunoblot analysis, 100 ul of culture was pelleted for 5 minutes at 3,500 g before lysis in SDS-PAGE sample buffer.
# Equivalent numbers of human cells grown to confluence in 6-well plates were first washed with PBS. Cells were then incubated twice in 400 μl extraction buffer (3:2 hexane:isopropanol) for 10 minutes (35). E. coli cell pellets from 2 ml of overnight culture were incubated in 500 μl extraction buffer (only once) for 30 minutes while rotating. Extractions were pooled and dried under nitrogen stream, to a volume of ˜10 μl, and then spotted on silica gel 60 TLC plates (Sigma-Aldrich). Plates were placed in a TLC tank containing a mobile phase to separate neutral lipids (80:20:1 hexane:diethyl ether:acetic acid) or polar lipids (60:50:4:1 chloroform:methanol:water:acetic acid). […] After drying, NBD fluorescence was monitored on a Universal Hood GelDoc system (Bio-Rad) using the fluorescein channel. […] (shaking at 850 rpm) for the indicated time (final [14C] DAG concentration, 50 μM; total radioactivity per assay, 0.14 μCi). […]
# [1] = tested on: HAP1 4KO cells (ΔDGAT1ΔDGAT2ΔDIESLΔTMX1); experiment: Shotgun lipidomics of HAP1 4KO cells reconstituted with WT or H130A DIESL; format: cell-based, human; details: HAP1 4KO cells expressing active (WT) or catalytic-inactive (H130A) DIESL; FIG. 4B
# Experimental: HAP1 4KO (ΔDGAT1ΔDGAT2ΔDIESLΔTMX1) cells, reconstituted with WT or H130A DIESL, were cultured in complete medium. Prior to collection, cells were cultured in serum-free IMDM for thirty minutes. Cells were then collected by trypsinization, washed twice with PBS and three million cells (in triplicate) were pelleted and stored at −80° C. For E. coli samples, 2 ml of induced culture (as described above, in triplicate) was pelleted and incubated overnight at −80° C. The following day, bacterial pellets were thawed and incubated in 25 μg/ml lysozyme in PBS for 30 minutes. Cells were pelleted, washed in PBS, and then pelleted again before resuspension in distilled water. Cells were sonicated at 60% amplitude for 5 minutes, in continuous 5-second on/25-second off cycles. The insoluble fraction was pelleted by centrifugation and the lysate (supernatant) was quantified for protein and stored at −80° C. […]
# Samples were analyzed by direct infusion on a QExactive mass spectrometer (Thermo Scientific) equipped with a TriVersa NanoMate ion source (Advion Biosciences). Samples were analyzed in both positive and negative ion modes with a resolution of Rm/z=200=280000 for MS and Rm/z=200=17500 for MSMS experiments, in a single acquisition. […]
# Data were analyzed by Lipotype GmbH with in-house developed lipid identification software based on LipidXplorer (41, 42). […]
molecule,measurement,setting,value
B1,TAG synthesis in E. coli,E. coli,induced de novo TAG synthesis
same,TAG abundance as share of the lipidome,[1],20.5 % of the lipidome
